Source: patent US20220249563A1 (LEGEND BIOTECH IRELAND, published 2022)

Target: T1, extracellular domain of human DLL3 protein (aa27-466) having an N-terminal FLAG tag (AdipoGen, AG-40B-0151) (human, UniProt Q9NYJ7 27-466)
T1 construct: range 27-466; also called DLL3 ECD protein
T1 sequence (looked up): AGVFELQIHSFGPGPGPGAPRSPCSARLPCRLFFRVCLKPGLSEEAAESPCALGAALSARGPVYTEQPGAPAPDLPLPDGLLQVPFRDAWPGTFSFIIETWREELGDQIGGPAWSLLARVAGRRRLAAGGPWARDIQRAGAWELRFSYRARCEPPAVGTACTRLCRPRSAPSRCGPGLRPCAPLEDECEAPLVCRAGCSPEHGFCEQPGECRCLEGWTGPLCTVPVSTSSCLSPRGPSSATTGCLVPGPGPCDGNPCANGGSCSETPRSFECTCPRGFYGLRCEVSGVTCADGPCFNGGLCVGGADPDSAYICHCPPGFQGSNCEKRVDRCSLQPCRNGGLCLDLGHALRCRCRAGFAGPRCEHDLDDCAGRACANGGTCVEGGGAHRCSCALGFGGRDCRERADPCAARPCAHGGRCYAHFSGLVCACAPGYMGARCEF
Experiment: SPR (Biacore), same procedure as for the HCAbs, human DLL3 as analyte

koff: 0.000559 s⁻¹
kon: 66000 M⁻¹ s⁻¹
B1: AS56704 scFv (scFv, V domains shown)
VH: EVQLVESGGGLVQPGGSLRLSCAASGFNISSSYMHWVRQAPGKGLEWVAYIYPSYGYTSYADSVKGRFTISADTSKNTAYLQMNSLRAEDTAVYYCARGGYYYHGMDYWGQGTLVTVSS
VL: DIQMTQSPSSLSASVGDRVTITCRASQSVSSAVAWYQQKPGKAPKLLIYSASSLYSGVPSRFSGSRSGTDFTLTISSLQPEDFATYYCQQASWSPITFGQGTKVEIK
notes: also called A556704
